Reference: patent publication US20220306695A1, “COMPSTATIN ANALOGUES AND THEIR MEDICAL USES” (priority 2019, published 2022)
Positions of bridges follow the written chain, without caps; N, C: chain ends. Non-standard residues stand in square brackets, D forms with d. β3hI = CC[C@H](C)[C@H](N)CC(=O)O; Nle = CCCC[C@H](N)C(=O)O; Nva = CCC[C@H](N)C(=O)O; Sar = CNCC(=O)O

B1: Compound 2 (peptide)
peptide: Ac-ICIWQDWGEHRCT-NH2
modifications: disulfide 2-12
SMILES: CC[C@H](C)[C@H](NC(C)=O)C(=O)N[C@H]1CSSC[C@@H](C(=O)N[C@H](C(N)=O)[C@@H](C)O)NC(=O)[C@H](CCCNC(=N)N)NC(=O)[C@H](Cc2c[nH]cn2)NC(=O)[C@H](CCC(=O)O)NC(=O)CNC(=O)[C@H](Cc2c[nH]c3ccccc23)NC(=O)[C@H](CC(=O)O)NC(=O)[C@H](CCC(N)=O)NC(=O)[C@H](Cc2c[nH]c3ccccc23)NC(=O)[C@H]([C@@H](C)CC)NC1=O
B2: Compound 20 (peptide)
peptide: Ac-ICIWQDWGEHSCT-NH2
modifications: disulfide 2-12
SMILES: CC[C@H](C)[C@H](NC(C)=O)C(=O)N[C@H]1CSSC[C@@H](C(=O)N[C@H](C(N)=O)[C@@H](C)O)NC(=O)[C@H](CO)NC(=O)[C@H](Cc2c[nH]cn2)NC(=O)[C@H](CCC(=O)O)NC(=O)CNC(=O)[C@H](Cc2c[nH]c3ccccc23)NC(=O)[C@H](CC(=O)O)NC(=O)[C@H](CCC(N)=O)NC(=O)[C@H](Cc2c[nH]c3ccccc23)NC(=O)[C@H]([C@@H](C)CC)NC1=O
B3: Compound G (peptide)
peptide: Ac-ICVWQDWGEHRCS-NH2
modifications: disulfide 2-12
SMILES: CC[C@H](C)[C@H](NC(C)=O)C(=O)N[C@H]1CSSC[C@@H](C(=O)N[C@@H](CO)C(N)=O)NC(=O)[C@H](CCCNC(=N)N)NC(=O)[C@H](Cc2c[nH]cn2)NC(=O)[C@H](CCC(=O)O)NC(=O)CNC(=O)[C@H](Cc2c[nH]c3ccccc23)NC(=O)[C@H](CC(=O)O)NC(=O)[C@H](CCC(N)=O)NC(=O)[C@H](Cc2c[nH]c3ccccc23)NC(=O)[C@H](C(C)C)NC1=O
B4: Compound A (peptide)
peptide: Ac-ICVWQDWGEHRCT-NH2
modifications: disulfide 2-12
SMILES: CC[C@H](C)[C@H](NC(C)=O)C(=O)N[C@H]1CSSC[C@@H](C(=O)N[C@H](C(N)=O)[C@@H](C)O)NC(=O)[C@H](CCCNC(=N)N)NC(=O)[C@H](Cc2c[nH]cn2)NC(=O)[C@H](CCC(=O)O)NC(=O)CNC(=O)[C@H](Cc2c[nH]c3ccccc23)NC(=O)[C@H](CC(=O)O)NC(=O)[C@H](CCC(N)=O)NC(=O)[C@H](Cc2c[nH]c3ccccc23)NC(=O)[C@H](C(C)C)NC1=O
B5: Compound 28 (peptide)
peptide: Ac-EGSAICIWQDWGEHRC[Sar]E-NH2
modifications: disulfide 6-16
SMILES: CC[C@H](C)[C@H](NC(=O)[C@H](C)NC(=O)[C@H](CO)NC(=O)CNC(=O)[C@H](CCC(=O)O)NC(C)=O)C(=O)N[C@H]1CSSC[C@@H](C(=O)N(C)CC(=O)N[C@@H](CCC(=O)O)C(N)=O)NC(=O)[C@H](CCCNC(=N)N)NC(=O)[C@H](Cc2c[nH]cn2)NC(=O)[C@H](CCC(=O)O)NC(=O)CNC(=O)[C@H](Cc2c[nH]c3ccccc23)NC(=O)[C@H](CC(=O)O)NC(=O)[C@H](CCC(N)=O)NC(=O)[C@H](Cc2c[nH]c3ccccc23)NC(=O)[C@H]([C@@H](C)CC)NC1=O
B6: Compound 24 (peptide)
peptide: Ac-ICIWQDWGEHRCTEGE-NH2
modifications: disulfide 2-12
SMILES: CC[C@H](C)[C@H](NC(C)=O)C(=O)N[C@H]1CSSC[C@@H](C(=O)N[C@H](C(=O)N[C@@H](CCC(=O)O)C(=O)NCC(=O)N[C@@H](CCC(=O)O)C(N)=O)[C@@H](C)O)NC(=O)[C@H](CCCNC(=N)N)NC(=O)[C@H](Cc2c[nH]cn2)NC(=O)[C@H](CCC(=O)O)NC(=O)CNC(=O)[C@H](Cc2c[nH]c3ccccc23)NC(=O)[C@H](CC(=O)O)NC(=O)[C@H](CCC(N)=O)NC(=O)[C@H](Cc2c[nH]c3ccccc23)NC(=O)[C@H]([C@@H](C)CC)NC1=O
notes: also called Comp No 24
B7: Compound D (peptide)
peptide: Ac-ICVWQDWGEHRCTGAES-NH2
modifications: disulfide 2-12
SMILES: CC[C@H](C)[C@H](NC(C)=O)C(=O)N[C@H]1CSSC[C@@H](C(=O)N[C@H](C(=O)NCC(=O)N[C@@H](C)C(=O)N[C@@H](CCC(=O)O)C(=O)N[C@@H](CO)C(N)=O)[C@@H](C)O)NC(=O)[C@H](CCCNC(=N)N)NC(=O)[C@H](Cc2c[nH]cn2)NC(=O)[C@H](CCC(=O)O)NC(=O)CNC(=O)[C@H](Cc2c[nH]c3ccccc23)NC(=O)[C@H](CC(=O)O)NC(=O)[C@H](CCC(N)=O)NC(=O)[C@H](Cc2c[nH]c3ccccc23)NC(=O)[C@H](C(C)C)NC1=O
B8: Ac-IC(1)XWQDWGEHRC(1)T-NH2 with Norleucine at position 3 (peptide)
peptide: Ac-IC[Nle]WQDWGEHRCT-NH2
modifications: disulfide 2-12
SMILES: CCCC[C@@H]1NC(=O)[C@@H](NC(=O)[C@@H](NC(C)=O)[C@@H](C)CC)CSSC[C@@H](C(=O)N[C@H](C(N)=O)[C@@H](C)O)NC(=O)[C@H](CCCNC(=N)N)NC(=O)[C@H](Cc2c[nH]cn2)NC(=O)[C@H](CCC(=O)O)NC(=O)CNC(=O)[C@H](Cc2c[nH]c3ccccc23)NC(=O)[C@H](CC(=O)O)NC(=O)[C@H](CCC(N)=O)NC(=O)[C@H](Cc2c[nH]c3ccccc23)NC1=O
B9: Ac-IC(1)XWQDWGEHRC(1)T-NH2 with Norvaline at position 3 (peptide)
peptide: Ac-IC[Nva]WQDWGEHRCT-NH2
modifications: disulfide 2-12
SMILES: CCC[C@@H]1NC(=O)[C@@H](NC(=O)[C@@H](NC(C)=O)[C@@H](C)CC)CSSC[C@@H](C(=O)N[C@H](C(N)=O)[C@@H](C)O)NC(=O)[C@H](CCCNC(=N)N)NC(=O)[C@H](Cc2c[nH]cn2)NC(=O)[C@H](CCC(=O)O)NC(=O)CNC(=O)[C@H](Cc2c[nH]c3ccccc23)NC(=O)[C@H](CC(=O)O)NC(=O)[C@H](CCC(N)=O)NC(=O)[C@H](Cc2c[nH]c3ccccc23)NC1=O

Target: T1, Human C3 (human, UniProt P01024 23-1663)
T1 sequence (P01024 23-1663 limits assumed): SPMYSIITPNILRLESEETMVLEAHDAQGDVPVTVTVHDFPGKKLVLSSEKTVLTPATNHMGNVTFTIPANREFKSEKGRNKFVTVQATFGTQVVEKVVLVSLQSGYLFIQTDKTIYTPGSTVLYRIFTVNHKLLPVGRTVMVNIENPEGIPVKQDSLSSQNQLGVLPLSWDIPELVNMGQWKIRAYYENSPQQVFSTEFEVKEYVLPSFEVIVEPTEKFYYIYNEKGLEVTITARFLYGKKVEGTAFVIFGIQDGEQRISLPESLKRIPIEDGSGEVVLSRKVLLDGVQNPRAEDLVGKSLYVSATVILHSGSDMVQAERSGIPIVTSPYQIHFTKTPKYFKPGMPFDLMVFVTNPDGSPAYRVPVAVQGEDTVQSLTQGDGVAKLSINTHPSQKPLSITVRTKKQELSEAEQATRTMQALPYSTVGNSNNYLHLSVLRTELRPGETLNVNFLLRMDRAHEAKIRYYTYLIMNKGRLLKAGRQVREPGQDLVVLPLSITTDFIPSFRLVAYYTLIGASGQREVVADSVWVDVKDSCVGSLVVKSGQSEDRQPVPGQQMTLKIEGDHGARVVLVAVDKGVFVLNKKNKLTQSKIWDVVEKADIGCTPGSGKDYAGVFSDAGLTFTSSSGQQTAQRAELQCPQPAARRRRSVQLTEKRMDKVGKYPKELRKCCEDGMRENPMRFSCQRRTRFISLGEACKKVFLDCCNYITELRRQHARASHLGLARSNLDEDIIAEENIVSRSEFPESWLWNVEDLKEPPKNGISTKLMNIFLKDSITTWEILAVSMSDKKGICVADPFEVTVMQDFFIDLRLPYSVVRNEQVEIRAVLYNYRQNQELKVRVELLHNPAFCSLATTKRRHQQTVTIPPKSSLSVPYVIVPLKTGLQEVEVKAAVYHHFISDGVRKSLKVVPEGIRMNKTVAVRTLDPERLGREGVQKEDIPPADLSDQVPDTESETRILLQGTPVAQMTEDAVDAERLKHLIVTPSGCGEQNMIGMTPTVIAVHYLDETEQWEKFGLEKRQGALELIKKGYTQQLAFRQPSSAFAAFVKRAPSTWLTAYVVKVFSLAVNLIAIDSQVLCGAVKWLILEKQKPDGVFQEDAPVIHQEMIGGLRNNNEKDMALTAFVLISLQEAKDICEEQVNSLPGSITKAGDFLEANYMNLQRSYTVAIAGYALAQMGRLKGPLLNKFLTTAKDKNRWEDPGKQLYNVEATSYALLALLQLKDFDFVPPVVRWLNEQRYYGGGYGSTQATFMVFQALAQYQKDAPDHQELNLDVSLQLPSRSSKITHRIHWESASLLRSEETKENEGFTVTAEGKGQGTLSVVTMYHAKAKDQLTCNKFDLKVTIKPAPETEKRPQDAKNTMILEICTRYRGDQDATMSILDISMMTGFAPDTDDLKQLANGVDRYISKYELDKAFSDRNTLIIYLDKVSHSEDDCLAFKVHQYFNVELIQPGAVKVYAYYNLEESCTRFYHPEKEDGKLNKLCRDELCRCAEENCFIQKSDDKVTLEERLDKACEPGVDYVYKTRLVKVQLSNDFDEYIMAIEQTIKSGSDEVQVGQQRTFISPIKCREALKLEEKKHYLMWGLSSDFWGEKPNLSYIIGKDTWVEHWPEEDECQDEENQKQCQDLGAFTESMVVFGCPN
Assay: cell-based or functional assay

| Binder | CP hemolysis IC50 |
| --- | --- |
| B1 | 94 nM |
| B2 | 59 nM |
| B3 | 180 nM |
| B4 | 350 nM |
| B5 | 88 nM |
| B6 | 90 nM |
| B7 | 210 nM |

Target: T1, Human C3
Assay: SPR, C3 immobilised
Method: Surface plasmon resonance (SPR) was used to characterize peptides with respect to their binding affinity (Kd) for C3. Human C3 (Complement tech cat #A1 13c) was immobilised on individual flow cells of CM5 sensor chips (GE Healthcare) using standard amine coupling to a density of approximately 3000 resonance units (RU) in a buffer consisting of 10 mM phosphate pH 7.4, 150 mM NaCl, 0.05% Tween20.
For interaction experiments a multi-cycle experiment approach was used and performed using either a Biacore™ T200 or Biacore™ X100 instrument (GE Healthcare) at 25° C. Peptides were injected in increasing concentration series (5-8 different concentrations) for 60-120 s at a flow rate of 30 μL/min in a buffer consisting of 10 mM Tris buffer at pH 7.4, with 150 mM NaCl and 0.05% Tween20. This was followed by a dissociation period for up to 10 min. The C3 surface was regenerated between runs by a 45 s injection of 3 M MgCl₂.
Sensorgrams were double-referenced (reference surface, blanks) prior to analysis of the kinetic profiles by globally fitting data to a 1:1 Langmuir binding model to obtain association and dissociation rates for calculation of the equilibrium dissociation constant Kd. Each peptide was tested at in at least 2 independent experiments.

| Binder | Kd |
| --- | --- |
| B3 | 160 nM |
| B4 | 130 nM |
| B7 | 230 nM |

Target: T1, Human C3
Assay: cell-based or functional assay
Remark: another data set of the same source

| Binder | IC50[nM], inhibition of hemolysis |
| --- | --- |
| B1 | < 100 nM |
| B2 | < 100 nM |
| B5 | < 100 nM |
| B6 | < 100 nM |

Target: T1, Human C3
Assay: SPR, C3 immobilised
Remark: another data set of the same source
Summary of the method: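 Peptide series (5-8 concentrations, 60-120 s, up to 10 min dissociation, Tris pH 7.4 running buffer) flowed over ~3000 RU amine-coupled human C3; MgCl₂ regeneration; at least two independent runs.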

| Binder | Kd |
| --- | --- |
| B2 | 37 nM |
| B5 | 44 nM |

Target: T1, Human C3
Assay: cell-based or functional assay
Remark: another data set of the same source

| Binder | IC50, CP hemolysis |
| --- | --- |
| Ac-IC[β3hI]WQDWGEHRCT-NH2 (disulfide 2-12) [Ac-IC(1)XWQDWGEHRC(1)T-NH2 with Beta-Homo-Isoleucine at position 3] | > 10000 nM |
| B1 | < 100 nM |
| B4 | 350 nM |
| B8 | 480 nM |
| B9 | > 1000 nM |
